From publication PMC10783490, “Biochemical and cellular insights into the Baz2B protein, a non-catalytic subunit of the chromatin remodeling complex” (Nucleic Acids Research, 2023) come the findings set out here.

Changes are numbered by the printed parent chain.

The target in data set [1] is T1, TAM-AT1-AT2 Baz2B (Homo sapiens, UniProt Q9UIF8 721-884).
T1 sequence: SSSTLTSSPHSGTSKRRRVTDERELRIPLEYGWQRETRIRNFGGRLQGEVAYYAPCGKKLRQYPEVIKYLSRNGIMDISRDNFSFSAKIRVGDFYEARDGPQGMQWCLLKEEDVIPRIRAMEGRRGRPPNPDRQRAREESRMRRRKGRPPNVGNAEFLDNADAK
As to the kind of experiment: MST; EMSA: 20 mM HEPES pH 7.5, 30 mM KCl, 1 mM EDTA, 10 mM (NH4)2SO4, 1 mM DTT, 4 C, 10 nM probe; MST: same plus 0.1 ug/ml BSA, 5 nM probe, 25 C; GST-AT-hook and bromodomain EMSA as in cited refs. The conditions noted are these: protein: recombinant; tags: His6; label: 5' Cy5. (In EMSA bound probe runs differently from free probe, usually more slowly.)

Data set [2] has as its target T1, TAM-AT1-AT2 Baz2B. As to the kind of experiment: EMSA; EMSA: 20 mM HEPES pH 7.5, 30 mM KCl, 1 mM EDTA, 10 mM (NH4)2SO4, 1 mM DTT, 4 C, 10 nM probe; MST: same plus 0.1 ug/ml BSA, 5 nM probe, 25 C; GST-AT-hook and bromodomain EMSA as in cited refs. The conditions noted are these: protein: recombinant; tags: His6; label: 5' Cy5.
The target of data set [3] is T2, BRD^Baz2B L2127V (human, UniProt Q9UIF8 2054-2168, L2127V, fluorescent label (Monolith NT Protein Labelling Kit RED-NHS)).
T2 construct: bromodomain (BRD) of human Baz2B with a cancer-associated point mutation, made on pNIC28-Bsa4-BAZ2B-BRD; Same limits as m1; mutation found in breast cancer; source: E. coli BL21(DE3)-R3-pRARE2, purified (Ni-NTA, Sephadex 75)
T2 sequence: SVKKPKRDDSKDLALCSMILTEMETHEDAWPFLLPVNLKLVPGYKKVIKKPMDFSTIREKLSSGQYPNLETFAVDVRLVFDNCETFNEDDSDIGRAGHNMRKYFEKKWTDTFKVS
Put plainly: MST; 100 nM fluorescently labelled (RED-NHS) BRD^Baz2B, peptide (H3 or H3K14ac) titrated; MST buffer 150 mM Tris-HCl, 50 mM NaCl, 10 mM MgCl2, pH 7.6, 0.0025% Pluronic, 200 ng/ul BSA; 25 C, 20% MST power; at least triplicate. The conditions noted are these: both partners purified.

The target in data set [4] is T3, BRD^Baz2B T2138I (human, UniProt Q9UIF8 2054-2168, T2138I, fluorescent label (Monolith NT Protein Labelling Kit RED-NHS)).
T3 construct: bromodomain (BRD) of human Baz2B with a cancer-associated point mutation, made on pNIC28-Bsa4-BAZ2B-BRD; Same limits as m1; mutation found in multiple myeloma; source: E. coli BL21(DE3)-R3-pRARE2, purified (Ni-NTA, Sephadex 75)
T3 sequence: T2 sequence with V74L, T85I
The description is as above. The conditions noted are these: both partners purified.

The target in data set [5] is T4, BRD^Baz2B K2098N (human, UniProt Q9UIF8 2054-2168, K2098N, fluorescent label (Monolith NT Protein Labelling Kit RED-NHS)).
T4 construct: bromodomain (BRD) of human Baz2B with a cancer-associated point mutation, made on pNIC28-Bsa4-BAZ2B-BRD; Same limits as m1; mutation found in multiple myeloma; source: E. coli BL21(DE3)-R3-pRARE2, purified (Ni-NTA, Sephadex 75)
T4 sequence: T2 sequence with K45N, V74L
Described as above. The conditions noted are these: both partners purified.

The target in data set [6] is T5, BRD^Baz2B L2073V (human, UniProt Q9UIF8 2054-2168, L2073V, fluorescent label (Monolith NT Protein Labelling Kit RED-NHS)).
T5 construct: bromodomain (BRD) of human Baz2B with a cancer-associated point mutation, made on pNIC28-Bsa4-BAZ2B-BRD; Same limits as m1; mutation found in pancreatic cancer (COSMIC/ICGC); source: E. coli BL21(DE3)-R3-pRARE2, purified (Ni-NTA, Sephadex 75)
T5 sequence: T2 sequence with L20V, V74L
Described as above. The conditions noted are these: both partners purified.

Data set [7] addresses T6, His6-BRD^Baz2B (bromodomain of human Baz2B, wild-type) (human, UniProt Q9UIF8 2054-2168, fluorescent label (Monolith NT Protein Labelling Kit RED-NHS)).
T6 construct: bromodomain (BRD) of human Baz2B, from plasmid pNIC28-Bsa4-BAZ2B-BRD; also called BAZ2B-BRD; source: E. coli BL21(DE3)-R3-pRARE2, purified (Ni-NTA, Sephadex 75)
T6 sequence: T2 sequence with V74L
The description is as above. The conditions noted are these: both partners purified.

The target of data set [8] is T7, BRD^Baz2B F2139C (human, UniProt Q9UIF8 2054-2168, F2139C, fluorescent label (Monolith NT Protein Labelling Kit RED-NHS)).
T7 construct: bromodomain (BRD) of human Baz2B with a cancer-associated point mutation, made on pNIC28-Bsa4-BAZ2B-BRD; Same limits as m1; mutation found in endometrial cancer; source: E. coli BL21(DE3)-R3-pRARE2, purified (Ni-NTA, Sephadex 75)
T7 sequence: T2 sequence with V74L, F86C
Described as above. The conditions noted are these: both partners purified.

The target of data set [9] is T8, BRD^Baz2B D2143N (human, UniProt Q9UIF8 2054-2168, D2143N, fluorescent label (Monolith NT Protein Labelling Kit RED-NHS)).
T8 construct: bromodomain (BRD) of human Baz2B with a cancer-associated point mutation, made on pNIC28-Bsa4-BAZ2B-BRD; Same limits as m1; mutation found in breast invasive carcinoma; source: E. coli BL21(DE3)-R3-pRARE2, purified (Ni-NTA, Sephadex 75)
T8 sequence: T2 sequence with V74L, D90N
The data set is described as above. The conditions noted are these: both partners purified.

In general, Kd refers to the equilibrium constant for the complex coming apart.

B1: pRNAmini (structured_RNA)
RNA: GGGGGGUCAUUUUUGGGGAAACCCUGUCUCUUUCC
Regarding B1, the equilibrium dissociation constant (Kd) is 0.288 µM in [1] and 0.137 µM in data set [2].

B2: H3K14ac peptide (Ac-TARKSTGGK(ac)APRKQL-NH2) (peptide)
peptide: Ac-TARKSTGGK(Ac)APRKQL-NH2
notes: N-terminal tail of histone H3, residues 6-20; also called acetylated H3 tail peptide; acetylated at K14 (K14ac) N-terminal H3 histone tail peptide; source: synthetic peptide, bought: alta Bioscience
With B2, the Kd in data set [3] was 30 µM; in data set [4], 94 µM; in data set [5], 24 µM; in data set [6] it was 78 µM; in data set [7], 16 µM; in data set [8] it was 20 µM. The Kd in data set [9] was found to be 133 µM.
